Results as given in patent publication US20170114146A1 (Hoffmann-La Roche, published 2017).

Assays:
Assay in all cases: cell-based or functional assay
[1] = biological target: T1, CD33 (myeloid cell surface antigen CD33) on human AML cell lines HL-60 and HEL (human, UniProt P20138 18-364)
[2] = biological target: T1, CD33 (myeloid cell surface antigen …); remark: listed apart in the source
[3] = biological target: CD3 antigen expressed on Jurkat-NFAT reporter cells (human, UniProt P07766 23-207)
CD3 antigen expressed on Jurkat-NFAT reporter cells, sequence (P07766 23-207 limits assumed): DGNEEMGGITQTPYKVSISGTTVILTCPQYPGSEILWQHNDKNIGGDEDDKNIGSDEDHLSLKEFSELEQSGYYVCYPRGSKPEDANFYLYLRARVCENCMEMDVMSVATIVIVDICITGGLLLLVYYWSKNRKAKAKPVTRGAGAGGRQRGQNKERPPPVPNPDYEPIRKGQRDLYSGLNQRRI

T1 sequence (P20138 18-364): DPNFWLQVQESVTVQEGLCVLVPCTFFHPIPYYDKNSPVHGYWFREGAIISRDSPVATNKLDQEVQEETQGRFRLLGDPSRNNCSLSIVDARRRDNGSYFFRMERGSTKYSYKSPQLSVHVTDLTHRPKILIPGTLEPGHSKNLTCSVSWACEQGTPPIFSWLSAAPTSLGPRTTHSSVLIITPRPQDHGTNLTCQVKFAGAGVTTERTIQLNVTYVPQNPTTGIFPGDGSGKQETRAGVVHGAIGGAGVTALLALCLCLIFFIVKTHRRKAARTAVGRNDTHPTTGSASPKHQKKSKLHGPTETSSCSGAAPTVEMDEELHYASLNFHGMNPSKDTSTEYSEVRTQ

Row | Binder | EC50 [pM] 42 h, T-cell mediated killing of HL-60 tumor cells (LDH release, human pan T cells, E:T 5:1) [1] [pM] | EC50, activation of Jurkat-NFAT reporter cells via CD3 (luminescence, 5 h, HL-60 target cells, E:T 2.5:1) [2] [nM] | EC50, activation of Jurkat-NFAT reporter cells via CD3 (luminescence, 5 h, HL-60 target cells, E:T 2.5:1) [3] [nM]
1 | CD33 CD3 TCB molecule B ("2+1 IgG CrossFab, inverted" with charge modifications, CD33 binders based on anti-CD33 antibody 2) (bispecific antibody) chain 1: EVQLLESGGGLVQPGGSLRLSCAASGFTFSTYAMNWVRQAPGKGLEWVSRIRSKYNNYATYYADSVKGRFTISRDDSKNTLYLQMNSLRAEDTAVYYCVRHGNFGNSYVSWFAYWGQGTLVTVSSASVAAPSVFIFPPSDEQLKSGTASVVCLLNNFYPREAKVQWKVDNALQSGNSQESVTEQDSKDSTYSLSSTLTLSKADYEKHKVYACEVTHQGLSSPVTKSFNRGEC chain 2: EVQLVQSGAEVKKPGSSVKVSCKASGYTITDSNIHWVRQAPGQSLEWIGYIYPYNGGTDYNQKFKNRATLTVDNPTNTAYMELSSLRSEDTAFYYCVNGNPWLAYWGQGTLVTVSSASTKGPSVFPLAPSSKSTSGGTAALGCLVEDYFPEPVTVSWNSGALTSGVHTFPAVLQSSGLYSLSSVVTVPSSSLGTQTYICNVNHKPSNTKVDEKVEPKSCDKTHTCPPCPAPEAAGGPSVFLFPPKPKDTLMISRTPEVTCVVVDVSHEDPEVKFNWYVDGVEVHNAKTKPREEQYNSTYRVVSVLTVLHQDWLNGKEYKCKVSNKALGAPIEKTISKAKGQPREPQVCTLPPSRDELTKNQVSLSCAVKGFYPSDIAVEWESNGQPENNYKTTPPVLDSDGSFFLVSKLTVDKSRWQQGNVFSCSVMHEALHNHYTQKSLSLSP chain 3: not shown chain 4: DIQLTQSPSTLSASVGDRVTITCRASESLDNYGIRFLTWFQQKPGKAPKLLMYAASNQGSGVPSRFSGSGSGTEFTLTISSLQPDDFATYYCQQTKEVPWSFGQGTKVEVKRTVAAPSVFIFPPSDRKLKSGTASVVCLLNNFYPREAKVQWKVDNALQSGNSQESVTEQDSKDSTYSLSSTLTLSKADYEKHKVYACEVTHQGLSSPVTKSFNRGEC | 18.5 | 0.0043 | 0.0043
2 | CD33 CD3 TCB molecule A ("2+1 IgG CrossFab, inverted" with charge modifications, CD33 binders based on anti-CD33 antibody 1) (bispecific antibody) chain 1: QVQLVQSGAEVKKPGSSVKVSCKASGYTFTDYNMHWVRQAPGQGLEWIGYIYPYNGGTGYNQKFKSKATITADESTNTAYMELSSLRSEDTAVYYCARGRPAMDYWGQGTLVTVSSASTKGPSVFPLAPSSKSTSGGTAALGCLVEDYFPEPVTVSWNSGALTSGVHTFPAVLQSSGLYSLSSVVTVPSSSLGTQTYICNVNHKPSNTKVDEKVEPKSCDKTHTCPPCPAPEAAGGPSVFLFPPKPKDTLMISRTPEVTCVVVDVSHEDPEVKFNWYVDGVEVHNAKTKPREEQYNSTYRVVSVLTVLHQDWLNGKEYKCKVSNKALGAPIEKTISKAKGQPREPQVCTLPPSRDELTKNQVSLSCAVKGFYPSDIAVEWESNGQPENNYKTTPPVLDSDGSFFLVSKLTVDKSRWQQGNVFSCSVMHEALHNHYTQKSLSLSP chain 2: not shown chain 3: EVQLLESGGGLVQPGGSLRLSCAASGFTFSTYAMNWVRQAPGKGLEWVSRIRSKYNNYATYYADSVKGRFTISRDDSKNTLYLQMNSLRAEDTAVYYCVRHGNFGNSYVSWFAYWGQGTLVTVSSASVAAPSVFIFPPSDEQLKSGTASVVCLLNNFYPREAKVQWKVDNALQSGNSQESVTEQDSKDSTYSLSSTLTLSKADYEKHKVYACEVTHQGLSSPVTKSFNRGEC chain 4: DIQMTQSPSSLSASVGDRVTITCRASESVDNYGISFMNWFQQKPGKAPKLLIYAASNQGSGVPSRFSGSGSGTDFTLTISSLQPDDFATYYCQQSKEVPWTFGQGTKVEIKRTVAAPSVFIFPPSDRKLKSGTASVVCLLNNFYPREAKVQWKVDNALQSGNSQESVTEQDSKDSTYSLSSTLTLSKADYEKHKVYACEVTHQGLSSPVTKSFNRGEC | 19.8 | 0.0794 | 0.0794
